Results from paper PMC3604133.

Molecular target: Aβ40-S26C (synthetic human Aβ1-40 in which Ser26 was changed to cysteine) (human)
Experiment: SEC

Substance: Aβ40-S26C (synthetic human Aβ1-40 in which Ser26 was changed to cysteine) (peptide)
- stoichiometry N: 2
